Measurements reported in PMC10269885.

Molecular target: PML protein (UniProt P29590)
Test: co-immunoprecipitation (anti-HA IP, anti-PML immunoblot, densitometry)
Conditions: HepaRG cells transfected with 10 μg plasmid; lysates prepared 48 h posttransfection; two independent experiments; parent: est. 7.8; read off a plot

Sequence of UniProt P29590 (P29590 whole entry): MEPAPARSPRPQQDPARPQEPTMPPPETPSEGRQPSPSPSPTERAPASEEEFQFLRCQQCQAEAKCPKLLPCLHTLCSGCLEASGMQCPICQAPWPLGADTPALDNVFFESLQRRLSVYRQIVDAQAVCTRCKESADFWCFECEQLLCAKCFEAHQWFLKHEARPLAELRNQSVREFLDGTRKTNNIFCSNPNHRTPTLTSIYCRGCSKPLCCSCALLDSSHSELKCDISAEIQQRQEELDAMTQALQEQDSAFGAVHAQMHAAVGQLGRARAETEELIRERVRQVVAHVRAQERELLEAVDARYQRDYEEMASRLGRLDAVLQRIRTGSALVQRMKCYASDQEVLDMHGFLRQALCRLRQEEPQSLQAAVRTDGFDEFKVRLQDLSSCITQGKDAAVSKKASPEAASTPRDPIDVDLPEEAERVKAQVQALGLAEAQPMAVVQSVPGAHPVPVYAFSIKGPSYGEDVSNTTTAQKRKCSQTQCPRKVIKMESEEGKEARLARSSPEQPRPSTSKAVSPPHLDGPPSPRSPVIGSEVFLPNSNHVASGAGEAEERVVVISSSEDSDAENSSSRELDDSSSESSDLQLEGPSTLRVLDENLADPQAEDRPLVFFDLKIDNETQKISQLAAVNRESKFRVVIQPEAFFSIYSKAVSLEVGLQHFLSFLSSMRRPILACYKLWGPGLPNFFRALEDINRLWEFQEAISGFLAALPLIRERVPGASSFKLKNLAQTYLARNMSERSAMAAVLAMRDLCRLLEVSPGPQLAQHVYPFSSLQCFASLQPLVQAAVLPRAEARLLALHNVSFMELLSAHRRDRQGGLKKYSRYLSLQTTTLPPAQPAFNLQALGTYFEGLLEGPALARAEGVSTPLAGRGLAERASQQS

HA-tagged wild-type HBV core protein (pCore-HA wt) K7R; K96R
response (% input of PML co-IP): 0.1
